Test: soluble on expression in E. coli; label from the status in PepcDB or PDB records

| Sequence | soluble on expression in E. coli |
| --- | --- |
| MGSDKIHHHHHHMEILSLGEKIKARRKELNMTLKDLAGDRITPGQISLVESGKSNPSMDLLEYLAGALNTSVEYLMESEETQAEKICVYYENTAEAYMLNDELMEAEQYLEKAMYYAENYKISYRKARTLYLYGCINMNKNELGVAQQFFLSSNVLFIKLNHYEDIINTFINLGKITLNLKAYNSSCSYFEQAERVSRDNDIGNDFLIGEIYYYMSLVYFKMNNSNKTIKYCLMAKEKFAELENKKEYARTLLILSKEYSKSGDVDNAIKYSKKALKAFKENDNMFAVADIENELGKLFYEFENIEESFIHLNKAKEIRKKTKGHEFIETLCNICENYIKLKDTENSQKVLNEIKENIDGNNVFDILKYYMLKYRISILNRSLKEAENILLRALQYAENMELEKEAAEFSVIIGKYYIDNGDDVEAAKYLNSGIEKFKKIGVLKDL | not soluble |
| MGSDKIHHHHHHMIERLELRNLTVFTGLTLELSPKINVIIGENGTGKTHLLKAAYGLCAGAPLFKNKPDTGDDELEAALTAKLLRLFMPLDDKLGKMHRQGATDQAYLSAKFAGGQKIAATFFNNSKALAVQDRANYEKYQAEAVFIPTKEVLSFMKGFNSLYEKYGLSFDQTYQDICLLLDLPEVRPETLHEKSKWAMAEIEGICGGRFVFYGGGKVTFKTENAEYSANSMAEGFRKAGILSRLLETGAIQPGVSGPLFWDEPESNLNPKLMKLLVQILLELSRNGQQIILATHDYVLLKWFDLLMDKGKDDHVRFHSLYRDADTSEIKVASTEDYLKITPNPIDEAFGFLINQEIENDMGGLGK | not soluble |
| MADINPNHTIYVNNLNEKVKKDELKRSLHMVFTQFGEIIQLMSFRKEKMRGQAHIVFKEVSSASNALRALQGFPFYGKPMRIQYAREDSDVISRAKGTFVEKRQKSTKIAKKPYEKPAKNGKSAAEPTQKEPQETDGPGLPNNILFCSNIPEGTEPEQIQTIFSQFPGLREVRWMPNTKDFAFIEYESEDLSEPARQALDNFRITPTQQITVKFASK | not soluble |
| IIEEEQQSLTGRLNIAVLPTIAPYLLPRVFPIWKKELAGLEIHVSEMQTSRCLASLLSGEIDMAIIASKAETEGLEDDLLYYEEFLGYVSRCEPLFEQDVIRTTEVNPHRLWLLDEGHCFRDQLVRFCQMKGLHERQTAYSGGSMEAFMRLVESGQGITFIPQLTVEQLSPSQKELVRPFGMPRPVREVRLAVRQDYSRRKLREQLIGLLRSAVPSDMHKLQTGQHLAHHHH | soluble |
| MSLTGKKIETHLEDMVAQANAQLKLTAPESNLEVSYQNYHRGVFSSQLQLLVKPIAGKENPWIKSGQSVIFNESVDHGPFPLAQLKKLNLIPSMASIQTTLVNNEVSKPLFDMAKGETPFEINSRIGYSGDSSSDISLKPLNYEQKDEKVAFSGGEFQLNADRDAKPSPFPGRRKVVRIDAVNEYNQKVQLTFNNLKTDGSSTLASFGERVGNQKLSLEKMTISVEGKELALLEGMEISGKSDLVNDGKTINSQLDYSLNSLKVQNQDLGSGKLTLKVGQIDGEAWHQFSQQYNAQTQALSRQPEIANNPELYQEKVTEAFFSALPLMLKGDPVITIAPLSWKNSQGESALNLSLFLKDPATTKEAPQTLAQEVDRSVKSLDAKLTIPVDMATEFMTQVARKVIRKIKRKNWRNSKLKVHQQWGRCSVEGHHHHHH | not soluble |
| MGSDKIHHHHHHMTHYKNNIDEAATLINSEGSAWNAINPESVARMRLQNRFKTGLDIAKYTAKIMREDMDNYDKDTSQYTQSLGCWHGFIAQQKMISIKKHLLTTKRRYLYLSGWMVAALRSEFGPLPDQSMHEKTSVAALIKELYTFLRQADARELGGLFRELDSAKESDKAAIQHKIENFETHVVPIIADIDAGFGNEEATYLMAKQMIEAGACCIQLENQVSDVKQCGHQDGKVTVPHVEFLAKINAVRYAFLELGIDDGVIVARTDSLGAGLTQKIAVTKEAGDLGDLYNSFLEVEAVDAAKLENGDVVFKQGGKLVKPARLPNGLFKFRAGTGEERCVLDCITSLQNGADLLWIETEKPHVSQIGGMVNEIRKVVPNAKLVYNNSPSFNWTLNFRQQVFDAMQKAGQDVSAYDRAQLMSVDYDGTELAIQADEKIRTFQSDSAREAGIFHHLITLPTYHTAALSTDNLAKEYFGDQGMLGYVANVQRKEIRQGIACVKHQNMAGSDIGDAHKEYFSGDQALKASGKDNTMNQF | not soluble |
| MGSDKIHHHHHHMSESLPPDAQRSPSYRAGVGLKAEHYRTILESQPDIGFFEVHAENYMGAGGPPHRFLSAIRESYPLSLHGVGLSIGADRPLDRDHLQRLKELIARYSPALFSEHLAWSSHDCGFLNDLLPVPYTAESLTRIVDHIDQVQEVLGRQMLLENPSTYLAFEESTYPEIDFIAAVVRRTGCGLLLDVNNVYVASINQQWDPFAYIDEYPLAAVQEIHLAGHAEETDEKARPLLIDSHDRHVADVVWDLYARAIRGTGPIPTLIEWDANIPDWPTLKAEAGRADAVVQAATQPASVDHVTIRSQFDMTRRRLKEAQTL | not soluble |
| MGLCVSKPSVAGSPEHYAAHVAEQATPSEEGSGTPAQATSSYSATDPALQGLARRGKKVDLSRSGLPERVALKTKLLANSLSDAKDAGVRSSIVKYGERTLKMLAANKQPDEALLKLDIKNLPALASVYNRRYPGLNIQHFDSPIDFLQSLSEQTTSVVSQRAVLRLERDGEHHVAADVRRRPNGEASVIVLEPARLLTFVTGHTQLRRQALSQLGENAKFAFIQVGAQKSAADCLMFDLHFALHAHQHSSLFDQWHDNMVNHGTIDPYGQGAASPDALLEDAGVELMLGEQMLPAIFYKHTHSSGVVEEVDRSQPGSAYTDVSTSGRQQQHESLEQRVQAFRVDRGYSASIETSRATKIRSALETAISDRQS | not soluble |
| MSSMEGKKVPQVTFRTRQGDKWVDVTTSELFDNKTVIVFSLPGAFTPTCSSSHLPRYNELAPVFKKYGVDDILVVSVNDTFVMNAWKEDEKSENISFIPDGNGEFTEGMGMLVGKEDLGFGKRSWRYSMLVKNGVVEKMFIEPNEPGDPFKVSDADTMLKYLAPQHQVQESISIFTKPGCPFCAKAKQLLHDKGLSFEEIILGHDATIVSVRAVSGRTTVPQVFIGGKHIGGSDDLEKYFA | soluble |
| MGSDKIHHHHHHMAVQFELYKTPMPKEKKNKTRYHARPVSFETVNTEKLAYRIHDRSTLRVSDIISTLEELKNEVAQCLLEGKKVHVDGLGFFQVTLSCEEEIRNPKDKRVHRVKLKAIKFKADKELKGELCHMKFQRSKIRPHSANLSEVEIDMKLTEYFAENQIITRKDFQYLCGMTQITAYRHIKRLMAEKKLQNKGTIYQPIYTPVPGNYRVSVDLKYKEQ | not soluble |
| TIDEINKAISSSLSRERIMETAMAQVERITGCEFVAILQAENGGLKVMSSHASGLEIPAALRPGAPLSLAGCTAWTAFRTGRSASIADLADTRKPGTVSRTLLAAGIRSLLAIPLMSRDQVKGVLLLGDTEPDKFARGETFTIEKIASQMAVALENARLYEDMR | not soluble |
| MGSDKIHHHHHHMTLINKLKQHLSDSQITQAQLAREAGVNAGALSAYLNDNYKGNIADVEAKLAAYLEKKAVQAREFVEAPAFIETATSRQIFKTLEFAQIANCLATVYGMSGVGKTKAIQEFAKSHANVWLVTASPSRSSLSEILYEIALELGISDAPRRKGTLSRLIARKIKGTEGLLIVDEADHLPYEALEELRIMQEEAGIGLVLVGNDKVYTRMKGGISPSHEYARLWSRVAKNTSIQKTKKADTQAVAQAWGLETDEEALKVMQSITETGGGLRILTQTYACRNGSKRIWQVD | not soluble |
| MGLRFPPKVLEHILSFIDSNEDRNSVSLVCKSWFETERKTRKRVFVGNCYAVSPAAVTRRFPEMRSLTLKGKPHFADYNLVPDGWGGYAWPWIEAMAAKSSSLEEIRMKRMVVTDECLEKIAASFKDFKVLVLTSCEGFSTDGIAAIAATCRNLRVLELRECIVEDLGGDWLSYFPESSTSLVSLDFSCLDSEVKISDLERLVSRSPNLKSLKLNPAVTLDGLVSLLRCAPQLTELGTGSFAAQLKPEAFSKLSEAFSNCKQLQSLSGLWDVLPEYLPALYSVCPGLTSLNLSYATVRMPDLVELLRRCSKLQKLWVMDLIEDKGLEAVASYCKELRELRVFPSEPDLDATNIPLTEQGLVFVSKGCRKLESVLYFCVQFTNAALFTIARKRPNLKCFRLCVIEPFAPDYKTNEPLDKGFKAIAEGCRDLRRLSVSGLLSDKAFKYIGKHAKKVRMLSIAFAGDSDLMLHHLLSGCESLKKLEIRDCPFGDTALLEHAAKLETMRSLWMSSCFVSFGACKLLSQKMPRLNVEVIDEHPPESRPESSPVERIYIYRTVAGPRMDTPEFVWTIHKNPENGVSHLAIK | not soluble |
| MSILVIGANGGVGSKLVSQLNEEHVDFTAGVRKEDQVKELENKGIKATLIDVEKNSINDLKNIFTDYDKVIFSVGSGGSTGADKTIIVDLDGAVKTIKASKEAGIKHYVMVSTYDSRREAFDASGDLKPYTIAKHYADDYLRTSDLNYTIVHPGSLTDDAGTGKIEADLYFDKAGSIPREDVATVLKEVVTSDGFNNQEFQILSGNHGVKDALKNYESLEHHHHHH | soluble |
| MAHHHHHHMGEGTAAAPPHSQEPRLRRRPRQLTVRHVVHVQPTSYFAQFERRCRHDALLYSPFLREDRVQARPKTLPPSLHREVGEPGVYAAYNAYIFADVAGQHDPLHHRRVCAAADHGEEEAVAARVEAGGDVVVATNVSSPPRPDSSKSLSAVQLSLTPLLSFTLDDMADTADGDAGMGNRVECESGSTRIGEAHRCHPPPPLLHGTPPEAGLPLHKTWHLFTSYVQRHFTAFPTALVHRYHLHHLAPSLFPNVGAAALMQGAGGAGNATGDRAARSGTAVGVAISTEASGSGSAVRAARAKPNVSNSSSSSAEDVVEYWPYSLKLRCIPEATLQLPYKQHATAKKTTQAQQRAEMAGSARQAPSTVNASLGHDAATAAAVPSPHLPAPRKRERQVSSSGDSASAPAYTVHASASSSTATAATPRVLPPPAAAARTRPPSAPPRRVAVVDGVTSLLPYPTPASALALLSTTFLRSLRTSSVVAAAAAAAAGTGEVPATPSTLTESRADWHGGFAASHQRVDVPSTGMVGMGGGALGFLGTGSAVPSKYRNVSGTFLELHLPAYCFPGGGCPVKPLLHDDDSAHASGAAAVVAEDTPSATSASPPAGEAACARREGDAVLGFGSADSSTYSCGPATVSMDESQKTAPRRWSSAPLKMDSQQLRPWGGYPGLWRGQCRAARLSMRASPWR | soluble |
| MRVATFSLVAQDPKTGDLGVAVASKFLAVGAVVPFAEAGVGAIATQSYANPRYGPQGLALLRQGASPEGVLEAFRRTDPGLEKRQFGLVAATGESLTFTGAECHPWAGGVAGKGFAAQGNLLSGSEVVEAMVETFLTAQAPFPERLLLALKAGEEAGGDRRGKQSAALLVVGEGKGYGGLWDRYVDLRVDDHPEPIDELFRLLSLHRLLFERPKGRRPLTEEEVRFFQGVLGRLGLYAGEAHGVFDEATERAFLALIGMENLEERYRGGPEVDEATLSYLKGRYGWS | soluble |
| MSLTELYAKSDLEKIKETLPGWQLDSFNYLNEKIGDKENKFPCIPGRQAFLSDQLRIAFVGDPRNPETAKELAPLLTRYGTISRETGKYASLTVIFHTPEELLTDYKIEDYESLFWQLLNSLSMEDPADWPDDIPENPDNFQWEYCFNGEPYFVLCATPAHSKRKSRSFPYFMLTFQPRWVFEDLNDTTAFGRNMSKQIRKRLEAYDEVPIHPHLGWYGKKDNLEWKQYFLRDDENQVSQCPFMKMKNLFKKERSDEGHHHHHH | soluble |
| MPVSPEREQALSEFVAAVQAREDVQSELNEITTLDQLKTIVDSIEPALTGAALIPFEQATSPPKITVDSGVLDKNIPWRLLRCPGGPLVLQMICTRVNFALWIESC | not soluble |
| MAHHHHHHMKRWDEKLTLALRRGSGSDDVTPNPVSEALRNLEETMESIKRRLSQLEKCVERQRVAINEVRTNTSPFDDLLTKTNGDIQSIQQQLEYVVISLERERGIVTDHTEQLRLFVRESTRRDGGRSGLSDSDPSFLFLLATWLYRPVVDFANGCYVLLSPLIGTLQSLSLFNPDVQVRQTESGVYLNNAQPSEDLLSRLQKGQLDPVLTSKT | not soluble |

Source: the DeepSol protein solubility set
